The nature of the data set: soluble on expression in E. coli; label from the status in PepcDB or PDB records.
For the sequence “MGSDKIHHHHHHMKGLYIGAAGMMNYMQHIQVHSNNVANAQTPGFKFDQLTSEVISRNKVNYQNGPVARQVGTIDYGVRPAATHINLTAGSSYITNRDRDFFMQDTDPTQGSNFFITAKNGEISLSRGGQFHSDQFGFLRTADGANLLSATGEAIQVGQKTSIRSEANGDLYNAETGQYLGRLGTKFVSANQADSLVKDGEGRLHVNGINTMNLPAGQGIIQNGVIETSNVDLGVEMVQLMDNQRMVQASKNVVNMFDKVYDKEATGLIRQ”, the “soluble on expression in E. coli” value is recorded as “not soluble”.

As for “MGSDKIHHHHHHMKGSTDLESRLPSAGAYGDRFASYFKLAKASVFKTGSLRTGEIAYTETSGYCHKPEPSVPVPPEDAFLVQTQLQDYPNHISWEDGRPGIVGTLRAGHTILRDLQRKPNAIIMGPHHTVHFYIPRATFNTVAEDLEARSISELAYVPAQPIDDDVIRGLIGTVRAAIKAPEETNRLFLDHLMMAAAVHLAQTYGGLKPRSLQHRGGLAPWQARLAIELLEGDLTGQLPLKDVAAACKLSVSYFSKAFCKTTGLAPHQWLLYRRVERAKSAMINEKTTLAEVALSCGFSDQSHFTRVFVRLVGTSPATWRRARNL”, the “soluble on expression in E. coli” value is recorded as “not soluble”.

“MGSDKIHHHHHHMKHESTKIPLVIFMHIPKTGGITLRNILDQQYRSEHILRLPQKNKLDNLLQKKGANIKKLQCVYGHHRFGVHEYFQQPFTYITMLRHPVERIISTYYFILQNERNRMHQKVKPLTFEQFVQSTDPDLQVPLTNHQTRYLSGERKPNLNKALQHMDTHFSVVGITELYNESLFIMKKKLGWDHISYQKKNVTYYRYRQTDIGLDTIEIIKRKNPLDLHLYETAKEKLQEHIKRLDSGARKELQQFLQDQNGFGPHG”: the “soluble on expression in E. coli” value is reported as “not soluble”.

In the case of “MGSDKIHHHHHHMKHFKYGAIALTLISGLAACGGSGSDEPEVVVPETGFSFDADALIVNLSDEVIVKGYSTLADRGEALLQATQTLVATPTQANLEAAQSAWKAARQPWEQGESHIFGPVDSLGIDPHLDSWPLNTTDLKTVLINSSGFDAETIKGWNDDVQGFHTMEFLLFGDGMDDNVKQIDELTANERDYLMGLAEVFRDYTKQLADAWLVSHDGQSGKAYGELLKSPGVDGNTFYSSQVGVLEELIKGMIGIVDEVGNGKIADPFGGSLASADTSKVESQYSWNSLTDFSDNIIGVRNVYQGEFTGEADKQGIIDFVRAADSELASRIAAEIDAAILQIHAIEGTDKMPFRQAIKDEAGRARIQKAVDALATLQASLENQVLPLLKEWKV”, the “soluble on expression in E. coli” value is “not soluble”.

In the case of “MGSDKIHHHHHHMKIAQIAPLFEAVPPRLYGGTERVVASICDALVKAGHQVDLYASGDSQSKARLIPCRERALRLDPAPLKSDIAAHYTLLDEVRRHAGEYDILHFHTDMLHFPFFEPIASKTLTTLHGRLDMADLPNAFKRWRQFPLVSISNDQRRALPGANWAGTVYHGLDPALYRFNPNPQGGYLAFLGRISPEKRPDRAIAIARKAGIPLKIAAKVDAADLNYYNDVIKPLLNQADVEFIGEITDAQKNDFLGNALALLFPVDWPEPFGLVMIEAMACGTPVIAWRCGSVPEIIEPGRNGFIVTDEHQAAAACHAATTLDRAKVREAFDMRFTSDVMAEHYLKLYKRLAASANDDNLMESQVG”, the “soluble on expression in E. coli” value is listed as “not soluble”.

Take “MGSDKIHHHHHHMKIAVVGGTFWDIFIFGENPHSSTIRESPGGSGLNVAYGLFLLGHTVDFYSNIGDDWRGKQIVELLEKASFDTSHMSTIQGGKTGIFIAHNDKPLAVDPGVNRKEMKLPSLSEYDLVFVTGEIPEKTIRKICENTKNVILDVGPGARFDTSDLNALVIGNERECSFRKCDVVKMGSKGARWGEVYVPGNGISYPHSIGLGDLFDIVFVHHLPLGKSKKEILEEAVKCSQILGQKENVTPFERISFLEPLSTKDDTLECPDESKDASHHGG”: the “soluble on expression in E. coli” value was “not soluble”.

Consider “MGSDKIHHHHHHMKIDSEHLEILAVIVEKGGLTEGAEALGKSQPSVSRTMALLEERIGTPLFEAGRRPLRPTELGNQLARLGAKIRTQNLEASRLVQRYRQGQAGRLRLGGTPIFFDGVVAGMVAEFQNRHSDVQITQTYGYFEDLSAGLRSGALDLAILPMHANMIPADMQFTPLLAGRNVIVGSATHPLARRGAITLADIEPYSWIAPPPDSPLFRDLQRSLKSIGLDDFKVSFSGGTLASIFSVVLGSDSLTVLPYSVVFTHQRVIPLQALPLRIEHPDRQLGLLTATERMPPPALERFVAFVTEKFKHLSTRMEHEQQVTRRRG”, for which the “soluble on expression in E. coli” value is listed as “not soluble”.

In the case of “MGSDKIHHHHHHMKIFNAMFSKVNGGLEQVFLNYIPALSSQGNLVIPIIHPKAEIRNSCPQDHLITVHNFNQHDFFAIHRLKKLIKIHQPDCIITHSYRAAYLFKKTRTKVPKIAVCHVKGHYDFGTDAIIALTEQMRRDIINSGIEERRVFTIPNLIHIPDGLQYREPKNNQIPIIGVCARFAAIKGVDVFINALAELKKRGVAFQAKIAGDGKEKEQYIELIRHHGLEHEITLLGWIEDKESFYKSIDIFCLPSREESFGLVVLESMMHSLPMVLTRLSGPLEIAGNSGCALFVPPEDPVSMADGLERLLRDKDLSKQLALKAFQRVQHYSSTKVAPMLHKVLEKACEINQQ”, the “soluble on expression in E. coli” value is recorded as “not soluble”.

As to “MGSDKIHHHHHHMKILIVDDEYRKVEEIFNVLADAGISCAGVKHETTAQAARILLRRQDYDLLIIDLHLPAAIGGKPDNEGGITFLDMIRLDEKVKLPASVLFITGREELIESAYTKVIERGAILCQYHSDSDEWKKILIGRAKYDSQRLARDEQVDVVIVTALRNPELDAVLNLPYQWIQKRIKDDPLTYHYGKIPRIDSNISVVAVSPNRKGMPSSAAVASKLALMFKPKILLMVGICAGIRDKCSLGDIIVADPTWDWGSGKHGLDSNGSPVFHAAPRQVPLNSALSQVASDLANDESVMNGIRKGWSEEVPGGKLKVHIGPMASGASVIADDRSARLIAIQQHRELIAIEMEAYAVMAAAEYTSIPNLTAMIIKSVCDFADAEKNDTWQKYASYTSAAFADQLFRNSNISV”, the “soluble on expression in E. coli” value was “not soluble”.

Consider “MGSDKIHHHHHHMKILIVGGSGGIGSAMVKDALARFQDAEVHATFCTDSTHTGCSHFSGVKWHRLDVTDEAGIKALSESFESLDWLINCVGMLHSGSKGPEKSLSQFDGEFFLHNMTLNTLPTLLLAKHFSARLKSSVSPRLAVLSARVGSISDNRLGGWYSYRASKAALNMLIKTLAVEWQRSLKGGVVLALHPGTTKTRLSEPFQANVPGDKLFLPERVAADLMDIIARAEVCDSGSFLAYDGATIPW”, for which the “soluble on expression in E. coli” value was “not soluble”.

Take “MGSDKIHHHHHHMKINTSMLWEDKAKSEVTYTTYLIEKTPDIKNKNPRPAVIICGGGGFFKVTDREKEPVALYFLNKGFQAITLDYTVGKGSGYPKPLYDLAKMLLIVRENAQNWNIDTEKVIFIGFSAGATHSASLANSWNEPFLQKYFDYPGETLKPSLVILSYPLLDFNYQYEQVSVDPDNQMPTKLSPMPKIDFLTGALKTVVGKELTTENLKEYSPIEHISTATVPTFIWGMQDDDCIYNNALLEYAKRLKDNGILYELHMFALGEHGLSVINSNTQAKFSDYEELGIWKKLCIQFINRVLHLK”: the “soluble on expression in E. coli” value is reported as “not soluble”.

As for “MGSDKIHHHHHHMKISPLCPSCLLGRVYYEAKLVTDDEDLISQCVDESLKILAENYSSRPINAHLATRIHRRVYEILGVEDPYAEVKARANEVARQVLPLAKEIVEGSDDPFKTAVIVSIVGNNFDYGVQGHKVVEEEFRDFLKRKVQEGLKINDTERIKELSSGKVVYLTDNAGEIFFDTLLMKEIKRRCEKLTAVVRGRPIISDATIEDARLARVDKIADELLTNGKGAIGIIMDELPDETRKALEEADLIVAKGMANYECLSDGSLKPIAFLLTAKCEPVARDIGVNVGDMVAKVVE”, the “soluble on expression in E. coli” value is reported as “soluble”.

As to “MGSDKIHHHHHHMKKEDKTPSRLIQLGKIYRLIEQFEEISRIELSKLSGLAPASITSLSRSLIEKRLIMEKTSRNTDNRGRPAIALCVSPFYWQALCATLVEDRFEIILSELDGVIIEQSVFPLQKDDLECLDKFLVKSVKQFLAETHSLARPITFSVTVGGELDKNGYLIKLGCTKFAHLDLKSLFTPYFNIPILIAEYFKTWLLAESTLGNVINCDDVLFLQLDDEINLSVLSEGELLFSREQDKININHLIVPRLNELQALINHDLPEVERYQVQHQVTHRAIAQFIDALYPNRVFSNNSEKMNFLCEQIQLKDKNALRIIEHITDCLAYILMNLVHIFSARRVMLNSSLLQLKDFLLEQLNRKLKSYLVDNISTVSVIAGKYEWNSPIVAASAIKQGIYDGSLLTSLVKQEENIINF”, the “soluble on expression in E. coli” value is given as “not soluble”.

As for “MGSDKIHHHHHHMKKFLENSIHQAIKACFFFLGKLPKKKLFIFESFHGKQYSDNPRAIFEYIRDNCPEYQCIWAVKKGYEMPFVEENVPFVKRLSWRWLWLMPRAQYWVFNTRMPAWMYKNQTTIYIQTWHGTPLKKLGLDIETVKMPEHETESYKLEVIQEAKRWDYLISPNAYSTRVFRQAFHYEGEILEIGYPRNDLLVCENKDKIAFSVRNQLGLAANKKIILYAPTWRDDESIRKGAYRFTNHLPVEQLLEIDSSIVILTRLHYLIAESFDISAFGSRVIDVSSYPDINQLYLIADLLITDYSSVMFDFALTKKPMLFFMYDKEKYQNSTRGFYFDPTAILPGKIVTDTDSLVTSVKNVLFSKTEQEQRLYVQFFREFCLENQDATRQLISEILKR”, the “soluble on expression in E. coli” value is listed as “not soluble”.

For “MGSDKIHHHHHHMKKFYDEMHASGDKVREHYAGYERWLAQQPHESMKGHRDEAEMIFRRVGITFAVYGAKDEDGSGTERLIPFDLIPRIIPAQEWREMEKGLRQRVNALNRFIHDVYHDQEIIKAGIVPGEQVFKNAQFRPEMMGVDVPGNVYSQIAGIDIVRAANPDGSGNYYVLEDNLRVPSGVSYMLENRKMMMRLFPELFSSHRVAPVAHYPDLLLDTLRAVAPPGVAEPTVVVMTPGMYNSAYFEHAFLAQQMGVELVEGQDLFVKDNYLYMRTTQGPRRVDVIYRRIDDDFLDPKAFRADSTIGCAGLLSVYRAGNVNLCNAIGTGVADDKSIYPYVPKMIEFYLGEKPILNNVPTYLCRESEDLQYVLAHLGELVVKEVHGAGGYGMLVGPAASKAEIEEFRTQLVANPSNYIAQPTLALSTCPTFVESGIAPRHIDLRPFVLSGKTVQMVPGGLTRVALKEGSLVVNSSQGGGTKDTWMLEA”, the “soluble on expression in E. coli” value is “not soluble”.

Consider “MGSDKIHHHHHHMKKKNVIVFGGGTGLSVLLRGLKTFPVSITAIVTVADDGGSSGRLRKELDIPPPGDVRNVLVALSEVEPLLEQLFQHRFENGNGLSGHSLGNLLLAGMTSITGDFARGISEMSKVLNVRGKVLPASNRSIILHGEMEDGTIVTGESSIPKAGKKIKRVFLTPKDTKPLREGLEAIRKADVIVIGPGSLYTSVLPNLLVPGICEAIKQSTARKVYICNVMTQNGETDGYTASDHLQAIMDHCGVGIVDDILVHGEPISDTVKAKYAKEKAEPVIVDEHKLKALGVGTISDYFVLEQDDVLRHNASKVSEAILEGKPRTSSSIQ”, for which the “soluble on expression in E. coli” value is recorded as “not soluble”.

On to “MGSDKIHHHHHHMKKRNITEFQVLSEIIRKQPHIKQKEIAENLGITVQAVSEHIRNLVKEGYVKSRGRGEYVVTEKGLRKLKNWISEFKDYLDEINTAVYRYKDIWPAIADEDVKDGETVYLFMKNGLLYASKQPKGEAKAKALYGGKKGEDIAICEIKGIIDVPKGKVIVFRIPPEVVGGSRAVDFNLIKENIDNLDDYVIATMGTVAYVVACKLGLKPDIRFAVPEAIVNACNRGCNVIALITGKMAEKVIKKLDNAKISYTVLDATKENK”, for which the “soluble on expression in E. coli” value is “not soluble”.

Regarding “MGSDKIHHHHHHMKKVAIVILNWNGRKLMEEFLPSVVSNSPEWAEVIVADNGSTDDSIEMLKAKFPTVGIISFNQNYGFAEGYNQALKRLDHEYCVLLNSDVEVTPNWLDAPIATLDSDPSIACVQPKIRAQRNKEYFEYAGAAGGYIDKYGYPFCRGRILHIVEKDEGQYDTPAYILWATGACLFVRTATYKEVGGLDAGFFAHQEEVDMCWRLRSRGYRLVCVPQSIVYHVGGATLNAESPRKTFLNFRNSLLMLYKNSREADLKHVMRIRFWLDYIAAAKFLMEGHIQNAKAVYEARKAYHQLKPEYAPKRKENLEKSTLSTIPELMRDSLILAFYLKGKRTFKAIKDRR”, the “soluble on expression in E. coli” value is reported as “not soluble”.

For the origin of these results see the DeepSol protein solubility set.
